The values below come from patent publication US20070166710A1, “Methods for inhibiting adipogenesis and for treating type 2 diabetes” (priority 2003, published 2007).

One data set deals with T1, Foxa-2 (transfected) (UniProt P32182).
T1 sequence: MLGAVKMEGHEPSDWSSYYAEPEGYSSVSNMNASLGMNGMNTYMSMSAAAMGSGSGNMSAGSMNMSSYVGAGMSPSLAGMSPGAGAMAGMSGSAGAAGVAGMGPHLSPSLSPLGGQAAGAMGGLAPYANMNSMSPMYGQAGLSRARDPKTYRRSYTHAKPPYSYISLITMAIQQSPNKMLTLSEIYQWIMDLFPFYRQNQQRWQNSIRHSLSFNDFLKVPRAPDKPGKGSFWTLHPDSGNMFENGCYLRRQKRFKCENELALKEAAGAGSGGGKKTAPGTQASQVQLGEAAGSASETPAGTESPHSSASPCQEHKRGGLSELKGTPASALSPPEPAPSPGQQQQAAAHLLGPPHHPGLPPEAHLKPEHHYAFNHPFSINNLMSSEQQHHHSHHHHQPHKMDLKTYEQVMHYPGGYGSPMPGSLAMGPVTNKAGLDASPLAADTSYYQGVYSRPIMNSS
The data set is described as follows: cell_activity.

The target in data set [1] is T2, GST-Foxa-2 (recombinant, from E. coli BL21, pGEX-4T2) (UniProt P32182).
T2 sequence: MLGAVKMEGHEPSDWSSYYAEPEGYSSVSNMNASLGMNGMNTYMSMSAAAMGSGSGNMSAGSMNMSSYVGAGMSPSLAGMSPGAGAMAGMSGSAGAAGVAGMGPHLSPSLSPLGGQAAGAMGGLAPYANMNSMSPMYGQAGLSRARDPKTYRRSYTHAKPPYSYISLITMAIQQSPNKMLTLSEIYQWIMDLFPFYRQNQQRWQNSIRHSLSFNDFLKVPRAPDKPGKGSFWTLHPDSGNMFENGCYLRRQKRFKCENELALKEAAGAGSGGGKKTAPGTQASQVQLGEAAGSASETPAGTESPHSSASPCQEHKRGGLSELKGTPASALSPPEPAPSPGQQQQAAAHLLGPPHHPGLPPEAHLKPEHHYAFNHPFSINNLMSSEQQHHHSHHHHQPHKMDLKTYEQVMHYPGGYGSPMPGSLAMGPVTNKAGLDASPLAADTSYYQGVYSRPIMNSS

The target in data set [2] is T3, GST-Foxa-2T156A (recombinant, from E. coli BL21, pGEX-4T2) (UniProt P32182).
T3 sequence: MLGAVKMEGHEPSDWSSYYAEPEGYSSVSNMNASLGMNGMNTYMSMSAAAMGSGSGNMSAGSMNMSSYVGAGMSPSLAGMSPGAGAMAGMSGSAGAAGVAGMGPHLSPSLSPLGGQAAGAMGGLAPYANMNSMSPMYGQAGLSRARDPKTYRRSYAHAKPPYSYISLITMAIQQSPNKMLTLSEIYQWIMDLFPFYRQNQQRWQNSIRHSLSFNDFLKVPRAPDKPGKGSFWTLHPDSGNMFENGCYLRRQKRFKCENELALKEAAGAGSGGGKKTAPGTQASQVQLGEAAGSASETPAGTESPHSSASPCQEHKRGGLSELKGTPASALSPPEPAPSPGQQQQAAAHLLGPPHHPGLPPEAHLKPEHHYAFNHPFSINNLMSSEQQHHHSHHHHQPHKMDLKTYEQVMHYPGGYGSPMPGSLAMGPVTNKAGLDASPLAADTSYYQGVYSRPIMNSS

Data set [3] concerns Foxa-2 expression. The data set is described as follows: Foxa-2 expression in primary adipocytes from lean wildtype C57B6 mice, semiquantitative RT-PCR. Format: cell-based. The note with it: 60 hours; leptin 100 ng/ml, TNF-α 5 ng/ml, adiponectin 500 ng/ml, glucagon 100 nM, glucose 20 mmol/L. As to the method: (§1) Total RNA was extracted from cells and EBs using Trizol following manufacturer's instructions (Life Technologies, Inc.). […] The cDNAs provided templates for polymerase chain reactions (PCRs) using specific primers at annealing temperatures ranging between 60 and 65° C. in the presence of dNTPs, [α^-32P]dCTP, and Taq DNA polymerase. […] Primary adipocytes were isolated as described by Rodbell (1964) J. Biol. Chem. 239:375-380. […] (1995) J. Cell. Biochem. 58:435-463. The reaction was stopped by spinning through dinonyl […] oil and the radioactivity quantified by scintillation counting. […] (1995) Am. J. Physiol. 268:[…]-[…]. Fatty acid de novo synthesis was analyzed by saponification of total lipids as described by […] et al. (1978) J. […] Incorporation into lipid glycerol was calculated by subtracting fatty acid radioactive label from total lipid radioactive label. Primary adipocytes were isolated from lean wildtype C57B6 mice and cultured in MEM medium (control) or in the presence of insulin (100 nM; 24 hours and 60 hours, respectively) or rosiglitazone (50 μM), WY14,643 (100 μM), dexametason (1 μM), leptin (100 ng/ml), TNF-α (5 ng/ml), adiponectin (500 ng/ml) and glucagons (100 nM) for 60 hours. Gene expression was measured by semiquantitative RT-PCR. Steady state mRNA levels of Hprt were used as a control and indicate that each lane contains similar amounts of mRNA. Reactions were also assayed in the absence of reverse transcriptase, showing that mRNA was not contaminated with genomic DNA.

Data set [4] concerns Foxa-2 expression. As to the kind of experiment: Foxa-2 expression in primary adipocytes from ob/ob mice, semiquantitative RT-PCR. The data set is classed as cell-based. As to conditions: 60 hours. Here is the method: as §1, with “ob/ob” for “lean wildtype C57B6”, “μM;” for “nM;”, “dexamethason” for “dexametason”, “TNF-α,” for “TNF-α”, “rnRNA.” for “mRNA.”
The next data set relates to Foxa-2. The data set is described as follows: Nuclear Foxa-2 in perfused livers, immunoblotting. The note with it: liver perfusion experiments. The data set is classed as in vivo, mice. (In general: A western blot detects proteins with antibodies after separation by electrophoresis.)

In the data set with Foxa-2 (transfected) (HepG2, decreased by insulin or Akt), “6xCdx-TkLuc (six Foxa-2 sites of the Cdx-2 gene)” yielded an activity (fold activation) of 5.

For “HA-Akt (human Akt1 fused to an N-terminal HA-tag, expressed from pCMV-HA-Akt)”, the “phosphorylation in an in vitro kinase assay ([gamma-32P]-ATP, autoradiography)” value in data set [1] is “wildtype Foxa-2 was phosphorylated by either Akt or myrAkt”; in data set [2] it was “no phosphorylation could be observed using Foxa-2T156A protein as substrate”.

As to “IL6: factor with effects on adipocyte differentiation and metabolism”, the “De novo expression of Foxa-2” value in the data set on Foxa-2 expression [3] is recorded as “could not be induced”. Further, the Foxa-2 expression entry with Foxa-2 expression [4] is “unable to raise”.

“PEPCK promoter (621 bp) luciferase reporter” yielded an activity (fold activation) in the data set with Foxa-2 (transfected) (HepG2, about 6-fold in FIG. 11c) of 5.

In turn, “Pref-1 promoter (1.3 kb) luciferase reporter” yielded an activity (fold activation) in the data set with Foxa-2 (transfected) (3T3-L1 luciferase reporter) of 6.

“Pref-1 promoter reporter, upstream Foxa element deleted” had an activity (% reduction of activity) with Foxa-2 (transfected) (3T3-L1 luciferase reporter) of 50.

For TNF-α, the “De novo expression of Foxa-2” value in the data set with Foxa-2 expression [3] is reported as “could not be induced”. Moreover, the Foxa-2 expression entry with Foxa-2 expression [4] is “unable to raise”.

With “constitutively active Akt, HA-tagged (pCMV-HA-myrAkt)”, the “phosphorylation in an in vitro kinase assay ([gamma-32P]-ATP, autoradiography)” value was “wildtype Foxa-2 was phosphorylated by either Akt or myrAkt” in data set [1] and “no phosphorylation could be observed using Foxa-2T156A protein as substrate” in data set [2].

“glucagon: hormone tested on Foxa-2 expression and nuclear localization”: the “De novo expression of Foxa-2” value in the data set with Foxa-2 expression [3] is on record as “could not be induced”. Moreover, the Foxa-2 expression entry with Foxa-2 expression [4] is “unable to raise”. In addition, the Foxa-2 nuclear localization entry with Foxa-2 was “does not affect”.

Regarding “leptin: factor with effects on adipocyte differentiation and metabolism”, the “De novo expression of Foxa-2” value with Foxa-2 expression [3] is reported as “could not be induced”. In the data set with Foxa-2 expression [4], the Foxa-2 expression entry is on record as “unable to raise”.

B1: adiponectin: factor with effects on adipocyte differentiation and metabolism (protein, UniProt Q15848 19-244, looked up)
Adiponectin: ETTTQGPGVLLPLPKGACTGWMAGIPGHPGHNGAPGRDGRDGTPGEKGEKGDPGLIGPKGDIGETGVPGAEGPRGFPGIQGRKGEPGEGAYVYRSAFSVGLETYVTIPNMPIRFTKIFYNQQNHYDGSTGKFHCNIPGLYYFAYHITVYMKDVKVSLFKKDKAMLFTYDQYQENNVDQASGSVLLHLEVGDQVWLQVYGEGERNGLYADNDNDSTFTGFLLYHDTN
B1: in the data set with Foxa-2 expression [3], the “De novo expression of Foxa-2” value is reported as “could not be induced”. Besides, the Foxa-2 expression entry in the data set with Foxa-2 expression [4] is reported as “unable to raise”.
